Measurements published in PMC4605270.

Molecular target: Borrelia burgdorferi hybrid histidine kinase Hk1 periplasmic sensor domain D1 (Borrelia burgdorferi strain 5A4 NP1)
Experiment: SEC

In the case of “Borrelia burgdorferi hybrid histidine kinase Hk1 periplasmic sensor domain D1 (domain or fragment)”, the stoichiometry N is reported as 2.
